The results in this text go back to PMC5345052, “Auto-phosphorylation Represses Protein Kinase R Activity” (Scientific Reports, 2017).

B1: truncated PKR kinase domain with N-terminal split Venus V2 tag [human] / full-length PKR with N-terminal split Venus V1 tag [human] (parent)
chain 1: MAGDLSAGFFMEELNTYRQKQGVVLKYQELPNSGPPHDRRFTFQVIIDGREFPEGEGRSKKEAKNAAAKLAVEILNKEKKAVSPLLLTTTNSSEGLSMGNYIGLINRIAQKKRLTVNYEQCASGVHGPEGFHYKCKMGQKEYSIGTGSTKQEAKQLAAKLAYLQILSEETSVKSDYLSSGSFATTCESQSNSLVTSTLASESSSEGDFSADTSEINSNSDSLNSSSLLMNGLRNNQRKAKRSLAPRFDLPDMKETKYTVDKRFGMDFKEIELIGSGGFGQVFKAKHRIDGKTYVIKRVKYNNEKAEREVKALAKLDHVNIVHYNGCWDGFDYDPETSDDSLESSDYDPENSKNSSRSKTKCLFIQMEFCDKGTLEQWIEKRRGEKLDKVLALELFEQITKGVDYIHSKKLIHRDLKPSNIFLVDTKQVKIGDFGLVTSLKNDGKRTRSKGTLRYMSPEQISSQDYGKEVDLYALGLILAELLHVCDTAFETSKFFTDLRDGIISDIFDKKEKTLLQKLLSKKPEDRPNTSEILRTLTVWKKSPEKNERHTC
chain 2: TVDKRFGMDFKEIELIGSGGFGQVFKAKHRIDGKTYVIKRVKYNNEKAEREVKALAKLDHVNIVHYNGCWDGFDYDPETSDDSLESSDYDPENSKNSSRSKTKCLFIQMEFCDKGTLEQWIEKRRGEKLDKVLALELFEQITKGVDYIHSKKLIHRDLKPSNIFLVDTKQVKIGDFGLVTSLKNDGKRTRSKGTLRYMSPEQISSQDYGKEVDLYALGLILAELLHVCDTAFETSKFFTDLRDGIISDIFDKKEKTLLQKLLSKKPEDRPNTSEILRTLTVWKKSPEKNERHTC

The test covers variants of B1. In words: split Venus fluorescence complementation in HEK293 cells.
Setting [1] is: 20 ng/well of each construct, 5 μM of 2AP, n = 3, read off a plot.
Setting [2] is: 20 ng/well of each construct, n = 7, read off a plot.

Consider chain 2 K39R, for which, where the note is “20 ng/well of full-length PKR and 30 ng/well of the truncated KD, n = 7, read off a plot”, the response came out at 4.2.
On to chain 1 S33A H37R T42A, for which the response worked out at 4.7 under setting [1] and 3 under setting [2].
chain 1 S33E H37R T42E: the response amounted to 2.9 under setting [1] and 2.5 under setting [2].
The like results for chain 1 H37R were, in that order, 2.7 and 2.5.
